Test [1] concerns the target T1, cynomolgus monkey FcRn/β2m (cynomolgus monkey, UniProt Q8SPV9 24-297; Q8SPW0 21-119, limits assumed).
T1 construct: injected in solution over immobilised antibody; also called Cyno FcRn/β2m
Description: SPR, immobilised antibody, cyno FcRn/b2m analyte, pH 6.0. In general terms: Surface plasmon resonance follows binding to a sensor surface in real time, without labels.
Description: (§1) Anti-C2 mAbs (1 μg/mL at pH 5) were immobilized on a carboxylmethyldextran (CM5) sensorchip surface using standard EDC/NHS chemistry. Human and Cyno FcRn/β2m (40 μM) were prepared in running buffer (10 mM HEPES, 150 mM NaCl, 10 mM MES adjusted to either pH 6 or pH 7.3) and injected on the immobilized anti-C2 surface at concentrations ranging from 0.078 to 40 μM, prepared in two-fold dilutions in running buffer. Association and dissociation phases were monitored for 180 and 600 seconds, respectively. […] Double referenced sensorgrams were fitted to either a 1:1 kinetic model (pH 6), including a term for mass transport limitation or to a 1:1 steady state model (pH 7.3) where responses at the end of the association phase were plotted against respective concentrations.
(§2) Binding to both human and cynomolgus monkey FcRn was tested using the SPR methods described above.

Test [2] concerns the target T1, cynomolgus monkey FcRn/β2m. Briefly: SPR, immobilised antibody, cyno FcRn/b2m analyte, pH 7.3.
Description: as §1, §2
Test [3] deals with T2, human complement C2 zymogen (human, UniProt P06681 21-752).
T2 construct: also called huC2; human C2
T2 sequence: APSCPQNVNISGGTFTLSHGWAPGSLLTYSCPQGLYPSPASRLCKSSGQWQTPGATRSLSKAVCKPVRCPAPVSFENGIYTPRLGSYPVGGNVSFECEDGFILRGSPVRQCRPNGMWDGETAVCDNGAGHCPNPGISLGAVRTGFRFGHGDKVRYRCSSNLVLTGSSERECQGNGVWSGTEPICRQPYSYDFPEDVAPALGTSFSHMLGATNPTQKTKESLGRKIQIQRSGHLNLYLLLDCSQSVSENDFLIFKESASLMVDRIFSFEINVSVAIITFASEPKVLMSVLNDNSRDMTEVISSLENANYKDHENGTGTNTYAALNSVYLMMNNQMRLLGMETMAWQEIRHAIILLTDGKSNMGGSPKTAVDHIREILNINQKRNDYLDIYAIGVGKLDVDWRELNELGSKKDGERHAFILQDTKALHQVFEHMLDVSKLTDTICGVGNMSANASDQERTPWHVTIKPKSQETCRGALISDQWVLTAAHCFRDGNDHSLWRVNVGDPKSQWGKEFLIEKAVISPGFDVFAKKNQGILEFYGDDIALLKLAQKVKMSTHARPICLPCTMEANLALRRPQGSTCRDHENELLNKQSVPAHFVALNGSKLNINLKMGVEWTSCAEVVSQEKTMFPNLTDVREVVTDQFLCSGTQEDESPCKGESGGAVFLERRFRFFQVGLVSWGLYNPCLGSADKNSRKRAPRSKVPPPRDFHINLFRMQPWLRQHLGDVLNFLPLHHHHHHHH
Description: SPR kinetics, captured antibody, analyte huC2 0 mM Ca^2+, pH 7.3.
Description: (§3) Surface plasmon resonance (SPR, Biacore) was used for all binding affinity analyses. In brief, goat anti-human IgG was directly immobilised onto the carboxymethyl dextran surface of CM5 sensorchips to approximately 12,000 RU using standard NHS/EDC chemistry at pH 5. The immobilised antibody surface was pre-conditioned with ten injections of polyclonal human IgG (Privigen 60 s) prepared at 1 μg/mL. Ligands (anti-C2 mAbs) were captured at the beginning of each cycle as described below. An adjacent spot or flow cell in which only Polyclonal IgG was capture was used as a reference surface. The goat anti-human IgG Fc antibody surface was regenerate in 100 mM H3PO4, injected for 45 seconds at the end of each cycle. Experiments were performed at 37° C. and the flow rate of each experiment was kept constant at 30 μL/min.

For test [4], the target named is T2, human complement C2 zymogen. Description: SPR kinetics, captured antibody, analyte huC2 (so in the source), pH 7.3.
Description: as §3
Test [5] has the same target. Description: SPR steady state, captured antibody, analyte huC2 0 mM Ca^2+, pH 6.0.
For test [6] the target is unchanged. Description: SPR kinetics, captured antibody, analyte huC2 20 mM Ca^2+ (so in the source), pH 7.3.
Description: as §3
For test [7] the target is unchanged. Description: SPR kinetics, captured antibody, analyte huC2 200 mM Ca^2+ (so in the source), pH 7.3.
Description: as §3
Test [8] shares this target. Description: SPR kinetics, captured antibody, analyte huC2 2000 mM Ca^2+ (so in the source), pH 7.3.
Description: as §3
Test [9] has the same target. Description: SPR steady state, captured antibody, analyte huC2 20 mM Ca^2+ (so in the source), pH 6.0.
Test [10] has the same target. Briefly: SPR steady state, captured antibody, analyte huC2 200 mM Ca^2+ (so in the source), pH 6.0.
Test [11] shares this target. Description: SPR steady state, captured antibody, analyte huC2 2000 mM Ca^2+ (so in the source), pH 6.0.
Test [12] shares this target. Briefly: SPR kinetics, captured antibody, analyte huC2 0 mM Ca^2+, pH 7.3. The source holds these as a separate data set.
Description: as §3
Test [13] has the same target. Description: SPR steady state, captured antibody, analyte huC2 0 mM Ca^2+, pH 6.0. The source holds these as a separate data set.
For test [14] the target is unchanged. Briefly: SPR kinetics, captured antibody, analyte huC2 2 mM Ca^2+ (so in the source), pH 7.3.
Description: as §3
For test [15] the target is unchanged. Description: SPR kinetics, captured antibody, analyte huC2 20 mM Ca^2+ (so in the source), pH 7.3. This is another data set of the same source.
Description: as §3
For test [16] the target is unchanged. Description: SPR kinetics, captured antibody, analyte huC2 200 mM Ca^2+ (so in the source), pH 7.3. This is another data set of the same source.
Description: as §3
Test [17] shares this target. Description: SPR kinetics, captured antibody, analyte huC2 2000 mM Ca^2+ (so in the source), pH 7.3. This is another data set of the same source.
Description: as §3
Test [18] has the same target. Briefly: SPR steady state, captured antibody, analyte huC2 20 mM Ca^2+ (so in the source), pH 6.0. The source holds these as a separate data set.
Test [19] has the same target. Description: SPR steady state, captured antibody, analyte huC2 200 mM Ca^2+ (so in the source), pH 6.0. The source holds these as a separate data set.
Test [20] has the same target. Briefly: SPR steady state, captured antibody, analyte huC2 2000 mM Ca^2+ (so in the source), pH 6.0. The source holds these as a separate data set.
Test [21] has as its target T1, cynomolgus monkey FcRn/β2m. Briefly: SPR, immobilised antibody, cyno FcRn/b2m analyte, pH 6.0; pH 6.0.
Description: as §1, §2
Test [22] deals with T2, human complement C2 zymogen. Description: SPR kinetics, captured antibody, analyte huC2 0 mM Ca^2+, pH 7.3. This is another data set of the same source.
Description: as §3
(§4) Sensogram data was double-referenced against a reference anti-IgG surface (i.e. minus anti-C2 mAb) and blank buffer injections obtained within each experiment. The binding data was fit to 1:1 (kinetic or steady-state) model using local Rmax and null refraction index (RI=0) when appropriate. Buffers and solutions were filtered (0.22 μm) prior to use.
(§5) Calcium concentrations ranged from zero (i.e. no added calcium, control) to near physiological levels (0.02, 0.2 and 2 mM CaCl₂.2H₂O, MW 147.02 Da).
Test [23] has the same target. Briefly: SPR kinetics, captured antibody, analyte huC2 (so in the source), pH 7.3. The source holds these as a separate data set.
Description: as §3, §4, §5
The target is the same in test [24]. Description: SPR steady state, captured antibody, analyte huC2 0 mM Ca^2+, pH 6.0. This is another data set of the same source.
Description: as §3, §4, §5
Test [25] shares this target. Description: SPR kinetics, captured antibody, analyte huC2 20 mM Ca^2+ (so in the source), pH 7.3. The source holds these as a separate data set.
Description: as §3, §4, §5
Test [26] has the same target. Briefly: SPR kinetics, captured antibody, analyte huC2 200 mM Ca^2+ (so in the source), pH 7.3. This is another data set of the same source.
Description: as §3, §4, §5
Test [27] shares this target. Description: SPR kinetics, captured antibody, analyte huC2 2000 mM Ca^2+ (so in the source), pH 7.3. This is another data set of the same source.
Description: as §3, §4, §5
For test [28] the target is unchanged. Description: SPR steady state, captured antibody, analyte huC2 20 mM Ca^2+ (so in the source), pH 6.0. The source holds these as a separate data set.
Description: as §3, §4, §5
For test [29] the target is unchanged. Briefly: SPR steady state, captured antibody, analyte huC2 200 mM Ca^2+ (so in the source), pH 6.0. This is another data set of the same source.
Description: as §3, §4, §5
For test [30] the target is unchanged. Description: SPR steady state, captured antibody, analyte huC2 2000 mM Ca^2+ (so in the source), pH 6.0. This is another data set of the same source.
Description: as §3, §4, §5

We go through three molecules from US20220332804A1 (CSL INNOVATION, published 2022).

Substitutions are numbered along the chain they refer to. In names and notes the source's numbering stands.

T1 sequence (Q8SPV9 24-297 limits assumed, chain 1 of 2): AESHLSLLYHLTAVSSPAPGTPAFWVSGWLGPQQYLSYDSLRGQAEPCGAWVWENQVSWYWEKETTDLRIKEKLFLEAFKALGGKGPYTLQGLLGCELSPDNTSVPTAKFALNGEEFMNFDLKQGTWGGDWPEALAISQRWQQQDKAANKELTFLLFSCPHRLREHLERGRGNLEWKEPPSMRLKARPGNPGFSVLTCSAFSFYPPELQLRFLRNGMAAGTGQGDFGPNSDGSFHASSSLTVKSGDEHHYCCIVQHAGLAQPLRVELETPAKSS
T1 sequence (Q8SPW0 21-119 limits assumed, chain 2 of 2): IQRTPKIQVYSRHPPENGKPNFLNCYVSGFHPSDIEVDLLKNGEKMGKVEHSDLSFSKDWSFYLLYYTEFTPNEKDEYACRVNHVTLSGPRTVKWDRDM

B1: RF16-226 YEY (Fc mutations M252Y, N286E, N434Y) (antibody, human IgG4 S228P, lambda)
heavy: EVQLVQSGAEVKKPGESLKISCKGSGYSFTSYWIGWVRQMPGKGLEWMGIIYPGDSDTRYSPSFQGQVTISADKSISTAYLQWSSLKASDTAMYYCARRFSYSSGWDMWGQGTLVTVSSASTKGPSVFPLAPCSRSTSESTAALGCLVKDYFPEPVTVSWNSGALTSGVHTFPAVLQSSGLYSLSSVVTVPSSSLGTKTYTCNVDHKPSNTKVDKRVESKYGPPCPPCPAPEFLGGPSVFLFPPKPKDTLYISRTPEVTCVVVDVSQEDPEVQFNWYVDGVEVHEAKTKPREEQFNSTYRVVSVLTVLHQDWLNGKEYKCKVSNKGLPSSIEKTISKAKGQPREPQVYTLPPSQEEMTKNQVSLTCLVKGFYPSDIAVEWESNGQPENNYKTTPPVLDSDGSFFLYSRLTVDKSRWQEGNVFSCSVMHEALHYHYTQKSLSLSLGK
light: SYELTQPPSVSVSPGQTARITCSGDALTSKYVAWYQQKSGLAPLLVIYEDTRRPSGIPAKFSGSSSGSVATLTISGAHGDDEADYYCYSTDASGHQRVFGGGTKLTVLSQPKAAPSVTLFPPSSEELQANKATLVCLISDFYPGAVTVAWKADGSPVKAGVETTKPSKQSNNKYAASSYLSLTPEQWKSHRSYSCQVTHEGSTVEKTVAPTECS
As for B1, the Kd (usually the concentration at which binding is half-saturated) in test [1] came out at 19 nM; in test [2], 2200 nM; in test [3] it was 8.7 nM; in [5], 84 nM; in test [6], 8.8 nM; in test [7] it was 9.2 nM. The Kd in test [8] is 10.7 nM; in test [9] it was 81.9 nM; in test [10] it was 86.9 nM; in test [11], 105 nM. Moreover, the koff (as a rule, the first-order rate constant of dissociation) in [3] was 0.00521 s⁻¹; in test [6] it was 0.00516 s⁻¹; in test [7], 0.00527 s⁻¹; in [8], 0.00573 s⁻¹. Further, the kon (in general, a measure of how fast the partners come together) in test [3] is 601000 M⁻¹ s⁻¹; in [4], 538000 M⁻¹ s⁻¹; in [6] it was 585000 M⁻¹ s⁻¹; in test [7], 573000 M⁻¹ s⁻¹.

B2: RF16-226 YPY (Fc mutations M252Y, V308P, N434Y) (antibody, human IgG4 S228P, lambda)
heavy: B1 heavy with E285N, V307P
light: B1 light
As for B2, the Kd in test [1] was 8.7 nM; in [2], 1100 nM; in test [12] it was 8.5 nM; in test [13], 87.3 nM; in test [15], 8.4 nM; in test [16], 8.8 nM. Besides, the Kd is 10.2 nM in test [17], 83.1 nM in [18], 91.9 nM in [19] and 102 nM in [20]. Also, the koff was 0.00493 s⁻¹ in test [12], 0.00526 s⁻¹ in [15], 0.00539 s⁻¹ in test [16] and 0.00584 s⁻¹ in test [17]. For the same molecule, the kon turned out to be 578000 M⁻¹ s⁻¹ in [12], 572000 M⁻¹ s⁻¹ in test [14], 626000 M⁻¹ s⁻¹ in [15] and 612000 M⁻¹ s⁻¹ in [16].

B3: RF16-226 YTE (Fc mutations M252Y, S254T, T256E) (antibody, human IgG4 S228P, lambda)
heavy: B1 heavy with S253T, T255E, E285N, Y433N
light: B1 light
For the molecule B3, the Kd in [21] came out at 450 nM; in [22] it was 8.5 nM; in [24] it was 74.3 nM; in test [25], 7.9 nM; in test [26] it was 8.3 nM; in [27], 9.9 nM. Moreover, the Kd in test [28] is 71 nM; in test [29] it was 74.6 nM; in test [30], 92.8 nM. In addition, the off-rate constant (koff) in test [22] came to 0.00495 s⁻¹; in test [25], 0.00521 s⁻¹; in [26], 0.00543 s⁻¹; in test [27], 0.00592 s⁻¹. Moreover, the kon was 584000 M⁻¹ s⁻¹ in test [22], 601000 M⁻¹ s⁻¹ in [23], 657000 M⁻¹ s⁻¹ in [25] and 653000 M⁻¹ s⁻¹ in [26].
